Several values for one entry are separate records, joined by “and”; a condition that tells them apart may be missing. Identical values can stand only once.
B1: Arabidopsis thaliana dihydrodipicolinate reductase 2 (At-DHDPR2) (enzyme, UniProt Q8LB01 54-349, looked up)
chain: LSMGKSETFEEAGNSVAPGNGISIMVNGCSGKMGKAVIKAADSAGVNIVPTSFGSVEEAGQTVEVCGKEILVHGPTEREKVLSSVFEKYPELIVVDYTIPSAVNDNAELYGKVGVPFVMGTTGGDRTRLYKTVEESKIYAVISPQMGKQVVAFLAAMEIMSEQFPGAFAGYSLEVMESHQASKLDASGTAKAVISCFQKLGVSYDMDQIQLIRDPKQQIEVVGVPEEHVSGHAFHLYHLTSPDKTVSFEFQHNVCGRSIYAEGTVDAVLFLAKKIRSKAEKRIYNMIDVLREGNMR
notes: Dihydrodipicolinate reductase 2 (At-DHDPR2), Arabidopsis thaliana, plasmid encoding AT3G59890 from TAIR; primers excluded the chloroplast transit peptide as identified by chloroP; residues may remain after TEV cleavage; also called AT3G59890; source: E. coli BL21(DE3) Star, purified (His-Trap, TEV cleavage, second His-trap)
B2: Thermotoga maritima dihydrodipicolinate reductase (Tm-DHDPR) (enzyme, T. maritima)
chain: MKYGIVGYSGRMGQEIQKVFSEKGHELVLKVDVNGVEELDSPDVVIDFSSPEALPKTVDLCKKYRAGLVLGTTALKEEHLQMLRELSKEVPVVQAYNFSIGINVLKRFLSELVKVLEDWDVEIVETHHRFKKDAPSGTAILLESALGKSVPIHSLRVGGVPGDHVVVFGNIGETIEIKHRAISRTVFAIGALKAAEFLVGKDPGMYSFEEVIFGGE
notes: Dihydrodipicolinate reductase (DapB), Thermotoga maritima; construct not described; theoretical mass of the tetramer printed as 99,380 Da
B3: Escherichia coli dihydrodipicolinate reductase (Ec-DHDPR) (enzyme, E. coli)
chain: MHDANIRVAIAGAGGRMGRQLIQAALALEGVQLGAALEREGSSLLGSDAGELAGAGKTGVTVQSSLDAVKDDFDVFIDFTRPEGTLNHLAFCRQHGKGMVIGTTGFDEAGKQAIRDAAADIAIVFAANFSVGVNVMLKLLEKAAKVMGDYTDIEIIEAHHRHKVDAPSGTALAMGEAIAHALDKDLKDCAVYSREGHTGERVPGTIGFATVRAGDIVGEHTAMFADIGERLEITHKASSRMTFANGAVRSALWLSGKESGLFDMRDVLDLNNL
notes: Dihydrodipicolinate reductase (DapB), Escherichia coli; construct not described; theoretical mass of the tetramer printed as 114,800 Da

How the values were obtained:
[1] = biological target: the molecule itself; assay: SEC-MALS; Malvern P3000 column with Viscotek TDA (refractive index, low angle and right angle light scattering); 100 µL of 1.0 mg/mL; 20 mM Tris-HCl, 150 mM NaCl, pH 8.0; 28°C
[2] = biological target: the molecule itself; assay: small angle X-ray scattering (SAXS); in-line gel filtration (Superdex 200 5/150), 20 mM Tris.HCl, 150 mM NaCl, pH 8.0, 27°C; initial concentration 2-5 mg/mL; volume and molecular weight by AUTOPOROD, comparison with crystal structures by CRYSOL

| Protein | stoichiometry N [1] | stoichiometry N [2] |
| --- | --- | --- |
| B1 | 2 and 4 |  |
| B2 |  | 4 |
| B3 |  | 4 |

From paper PMC3390394, “Characterisation of the First Enzymes Committed to Lysine Biosynthesis in Arabidopsis thaliana” (PLoS ONE, 2012)
